Measurements taken from patent publication US20010023068.

System: G-protein beta/gamma subunits (Gβγ)

| Substance | fold stimulation of 32P incorporation into PIP3 in the presence of Gβγ over that in its absence | pmol incorporation of 32P into PIP3, Plus Gβγ [pmol] | fold stimulation of 32P incorporation into PIP3 in the presence of Gβγ over basal activity |
| --- | --- | --- | --- |
| p110g/SVP4b heterodimer (GFP-fusion tagged p110gamma co-expressed with SVP4b in SF21 cells) | a 9.4 fold stimulation of ^32P incorporation into PIP3 over that seen in the absence of Gβγ was seen with the p110g/SVP4b heterodimer | 10.3 | – |
| p110g/p101 heterodimer (GFP-fusion tagged p110gamma co-expressed with full length p101 in SF21 cells) | – | 13.5 | the p101/p101 heterodimer produced a 4.6 fold stimulation over basal activity in the presence of Gβγ |
